Target: FliW-T25 (Clostridioides difficile) (UniProt Q18CX4)
Test: two-hybrid; bacterial two-hybrid (BACTH) in E. coli BTH101 read by β-galactosidase assay on cell lysates (10^10 CFU, bead beating in Z buffer, ONPG, ΔOD420 over 1 h)

TcdR-T18 (natural protein) was tested, and the fold increase in β-galactosidase activity over the TcdR-T18 + T25 control was 2 fold.

Source: PMC11898703
